Source: patent CN114736293A

Target: SARS-CoV-2 S蛋白(spike protein)，展示于假病毒表面 (SARS-CoV-2) (UniProt P0DTC2)
Assay: cell-based or functional assay

## 自组装铁蛋白融合纳米抗体Ferritin-H11-D4(家蚕杆状病毒表达系统表达)
  IC50(假病毒中和试验): 2.19 nM
  中和活性，相对大肠杆菌表达的铁蛋白融合蛋白的倍数: 20 fold
  对假病毒的中和活性，相对单独表达的纳米抗体H11-D4的倍数: 8 fold
